This note sets out measurements from US20160347814A1.

This assay concerns the target Inducible counterpart receptor for VSTM5 on anti-CD3 activated human CD4+ T cells. The assay is described as follows: FACS on anti-CD3 activated primary human CD4+ T cells, 100 ug/ml; background of the isotype control on the whole cells.

As to “Synagis (Palivizumab, anti-RSV humanized IgG1 mAb) (antibody)”, the gMFI came out at 0.335.
